Target: PknF catalytic domain (cPknF) catalytic domain, 1-299 (UniProt P9WI75)
Conditions: reference: non-phosphorylated cPknF; sites T173,T175

**Q.** Which “other: volume fraction of dimers” value does the source give for “PknF catalytic domain (cPknF) catalytic domain, 1-299 (from UniProt P9WI75)” here?
**A.** stronger; reference 44

From paper PMC8339232
